According to patent US11053313B2, “Anti-CLDN-5 antibody, and drug containing said antibody” (OSAKA UNIVERSITY, priority 2017, dated 2021):
Numbering of substitutions follows the chain as printed. Entries after “also recorded” stand apart in the source; their conditions may differ.

T1: 5-5-1 (Homo sapiens, UniProt O00501, A162Q/K157R/L160F/Q156A/S151M/S155N/V152T)
T1 construct: expressed in transfected cells; host or cells: retrovirus-infected cells (pCX4pur)
T1 sequence (O00501 1-218 S151M/V152T/S155N/Q156A/K157R/L160F/A162Q): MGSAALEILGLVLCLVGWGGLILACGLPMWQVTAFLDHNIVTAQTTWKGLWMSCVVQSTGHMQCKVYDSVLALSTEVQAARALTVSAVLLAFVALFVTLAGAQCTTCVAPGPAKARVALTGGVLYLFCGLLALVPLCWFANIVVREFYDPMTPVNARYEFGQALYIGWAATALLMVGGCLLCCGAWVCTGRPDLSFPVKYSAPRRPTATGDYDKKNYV

T2: 1-1-5 (Homo sapiens, UniProt O00501, A34S/A72N/D37G/E76T/F35Y/G26A/H38D/H61Q/K48E/L36A/M29Q/M62I/Q31R/T33Y/T45A/T46M/T75S/V32I/V56S/V70L/W47Y/Y67F)
T2 construct: expressed in transfected cells; host or cells: retrovirus-infected cells (pCX4pur)
T2 sequence (O00501 1-218 G26A/M29Q/Q31R/V32I/T33Y/A34S/F35Y/L36A/D37G/H38D/T45A/T46M/W47Y/K48E/V56S/H61Q/M62I/Y67F/V70L/A72N/T75S/E76T): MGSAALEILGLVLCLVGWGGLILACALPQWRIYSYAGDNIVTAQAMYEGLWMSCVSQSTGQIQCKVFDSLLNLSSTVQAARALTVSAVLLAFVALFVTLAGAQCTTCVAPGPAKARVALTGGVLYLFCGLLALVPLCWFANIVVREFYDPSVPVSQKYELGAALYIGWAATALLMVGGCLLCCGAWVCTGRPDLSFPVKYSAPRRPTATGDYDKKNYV

T3: hCLDN-5 (Homo sapiens, UniProt O00501)
T3 construct: expressed in transfected cells; host or cells: HT-1080 human fibrosarcoma cells infected with a pCX4pur-derived retrovirus (HT-1080/hCLDN-5)
T3 sequence (O00501 1-218): T1 sequence (O00501 1-218 S151M/V152T/S155N/Q156A/K157R/L160F/A162Q) with M151S, T152V, N155S, A156Q, R157K, F160L, Q162A

T4: 1-5-5 (Homo sapiens, UniProt O00501, A34S/D37G/F35Y/G26A/H38D/K48E/L36A/M29Q/Q31R/T33Y/T45A/T46M/V32I/W47Y)
T4 construct: expressed in transfected cells; host or cells: retrovirus-infected cells (pCX4pur)
T4 sequence (O00501 1-218 G26A/M29Q/Q31R/V32I/T33Y/A34S/F35Y/L36A/D37G/H38D/T45A/T46M/W47Y/K48E): T2 sequence (O00501 1-218 G26A/M29Q/Q31R/V32I/T33Y/A34S/F35Y/L36A/D37G/H38D/T45A/T46M/W47Y/K48E/V56S/H61Q/M62I/Y67F/V70L/A72N/T75S/E76T) with S56V, Q61H, I62M, F67Y, L70V, N72A, S75T, T76E

T5: mCLDN-5 (Mus musculus, UniProt O54942)
T5 construct: expressed in transfected cells; host or cells: retrovirus-infected cells
T5 sequence (O54942 1-218): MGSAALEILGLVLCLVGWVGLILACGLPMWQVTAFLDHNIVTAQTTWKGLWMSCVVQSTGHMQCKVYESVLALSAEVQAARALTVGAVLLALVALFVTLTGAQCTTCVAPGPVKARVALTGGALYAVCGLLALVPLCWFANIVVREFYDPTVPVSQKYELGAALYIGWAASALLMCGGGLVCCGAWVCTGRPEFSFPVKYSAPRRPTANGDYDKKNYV

B1: R14: rat anti-CLDN-5 monoclonal antibody, IgG2a/K; VH SEQ ID NO: 21, VL SEQ ID NO: 22; example of antibody K (antibody, V domains shown)
VH: QVTLKESGPGILQPSHTLSLTCSFSGFSLSTYGMGVSWIRQPSGKGLEWLASIWWNGRTYTNPSLMSRLTVSKDTSTNQAFLRVTSVETADTATYYCAHTPYDYSNLGWFTYWGQGTLVTVSS
VL: DILMTQTPSSQAVSAGEKVTVSCKSSQSLLYSGDQKSYLAWYQQKPGQSPKLLIYLASTRKSGVPDRFIGSGSGTDFTLTISSVQAEDLADYYCQQHYTYPLTFGSGTKLEI
modifications: R14 VH; R14 VL
B2: M23: mouse anti-CLDN-5 monoclonal antibody, IgG2b/K; VH SEQ ID NO: 5, VL SEQ ID NO: 6; example of antibody C (antibody, V domains shown)
VH: EVQLQQSGPVLVKPGPSVMISCKASGFTFTDYYMHWVKQSHGKSLEWIGLVYPYNGGTDYNQKFKGKATLTVDTSSSTAYMELNSLTSEDSAVYYCARCLYDGLYFYAMDYWGQGTSVTVSS
VL: DIVMSQSPSSLAVSAGEKVTMTCKSSQSLLNSRARKNYLAWYQQKAGQSPKLLMYWASTRESGVPDRFTASGSGTDFTLTISSVQAEDLAVFYCKQSYNLPWTFGGGTKLEIKR
modifications: M23 VH; M23 VL
B3: M11: mouse anti-CLDN-5 monoclonal antibody, IgG2b/K; VH SEQ ID NO: 3, VL SEQ ID NO: 4; example of antibody B (antibody, V domains shown)
VH: QVQLKQSGPGLVQPSQSLSITCTVSGFSLIRYGVHWVRQSPGKGLEWLGVKWSGGSTDYNGAFKSRLSISKDNSKSQVFFKMNSLQADDTAIYYCARGLDGYYVPDVWGTGTSVTVS
VL: DIVMTQSHKFMSTSVGDRVSITCKASQDVSTNVAWYQQKPGQSPTLLIYWASTRHTGVPDRFTGSGSGTDYTLTISSVQAEDLALYYCQQHYSTPLTFGAGTKLELRR
modifications: M11 VH; M11 VL
B4: R3: rat anti-CLDN-5 monoclonal antibody, IgG2a/K; VH SEQ ID NO: 13, VL SEQ ID NO: 14; example of antibody G (antibody, V domains shown)
VH: EVQLVESGGGLVQPGRSLKLSCAASGFTFSDYYMAWVRQAPKKGLEWVASISYEGRNTYYGDSVKGRFTISRDNAKSTLYLQMKSLRSEDTATYYCTRHPRRYFDYWGQGVMVTVSS
VL: DIVMTQSPSSLAVSAGETVTMNCRSSQSLFSSGDQKKFLAWYQQKPGQSPKLLISLASTRESGVPDRFIGSGSGTDFTLTINNMQAEDLAIYYCQQHYDIPYTFGAGTKLEL
modifications: R3 VH; R3 VL
B5: M48: mouse anti-CLDN-5 monoclonal antibody, IgG3/K; VH SEQ ID NO: 9, VL SEQ ID NO: 10; example of antibody E (antibody, V domains shown)
VH: QAYLQQSGAELVRPGASVKMSCKASGYTFTSYNMHWVKKTRRQGLEWIGAISPGNGNTSYNQKFKGKATLTVDKSSSTAYMQLSSLTSEDSAVYFCARDDGYYGALDYWGQGTSVTVSS
VL: DIVLTQSPATLSVTPGESVSLSCRASQGISTSIHWYQQKSNESPRLLIRYASQSISRIPSRFSGSGSGTDFTLTINGVESEDLSVYYCQQSYNLPLTFGSGTKLEI
modifications: M48 VH; M48 VL
B6: R2: rat anti-CLDN-5 monoclonal antibody, IgG2a/K; VH SEQ ID NO: 11, VL SEQ ID NO: 12; example of antibody F (antibody, V domains shown)
VH: QVQLKESGPGLVQPSQTLSLTCTVSGLSLIRNSVSWIRQPPGKGLEWMGVIWSNGGTEYNSTVKSRLSISRDTSKNQVFLKMNSLQTEDSAMFFCARTPDGYYPYFDYWGQGVMVTVSS
VL: B5 VL
modifications: R2 VH; R2 VL

Assays:
hCLDN-5 [1] = experiment: Epitope analysis by hCLDN-5/mCLDN-5 chimeric CLDN (D68E, T75A, S151T, TM; FACS); type: binding, human; conditions: antibody concentration 5 μg/mL, mutants D68E
5-5-1 = target: T1, 5-5-1; experiment: Epitope analysis FACS, chimeric protein 5-5-1; type: binding; conditions: antibody concentration 5 μg/mL; second extracellular loop substituted with hCLDN-1
1-1-5 = target: T2, 1-1-5; experiment: Epitope analysis FACS, chimeric protein 1-1-5; type: binding; conditions: antibody concentration 5 μg/mL; first extracellular loop substituted with hCLDN-1
hCLDN-5 [2] = experiment: Epitope analysis by hCLDN-5/hCLDN-1 chimeric CLDN (FACS), loop assignment; type: binding, human; conditions: antibody concentration 5 μg/mL, hCLDN-5/hCLDN-1 chimeras
hCLDN-5 [3] = target: T3, hCLDN-5; experiment: Western blotting operability, HT-1080/hCLDN-5 lysate; type: binding; conditions: SDS-PAGE under reducing condition, antibody concentration 10 μg/mL, FIG. 5
Method: FIG. 5 illustrates western blotting images showing the CLDN-5 primary structure recognizability of the anti-CLDN-5 antibodies obtained in Example 3-6). The primary antibodies used are shown at the top of the images, and the used cells are shown under the primary antibodies. The names of proteins represented by bands are shown on the left side of the images.
Cell lysates were prepared from HT-1080/mock and HT-1080/hCLDN-5 obtained in Example 1-2), and the lysates were separated by SDS-PAGE under a reducing condition. By using the antibodies (antibody concentration: 10 μg/mL) obtained in Example 1 as primary antibodies, western blotting was performed according to the conventional method. As primary antibodies, commercial monoclonal antibodies (4C3C2, Invitrogen, 35-2500) recognizing the C-terminal of CLDN-5 were used as positive control, and β actin antibodies (Sigma Aldrich, A1978) were used as loading control. The results are illustrated in FIG. 5.

1-5-5 = target: T4, 1-5-5; experiment: Epitope analysis FACS, chimeric protein 1-5-5; type: binding; conditions: antibody concentration 5 μg/mL; N-terminal half of first extracellular loop substituted with hCLDN-1
CLDN-5 = CLDN-5 localization by immunostaining in blood-brain barrier simulation system; type: cell-based; conditions: monkey BBB kit, 12 hours after addition, FIG. 14
ZO-1 = ZO-1 localization by immunostaining in blood-brain barrier simulation system; type: cell-based; conditions: monkey BBB kit, 12 hours after addition, FIG. 14
mCLDN-5 = target: T5, mCLDN-5; experiment: Evaluation of CLDN specificity by FACS, mCLDN-5-expressing cells; type: binding; conditions: hybridoma culture supernatant as primary antibody, FIG. 1B
[4] = system: blood-brain barrier simulation system; experiment: Material permeability of blood-brain barrier simulation system (monkey BBB kit); type: cell-based; conditions: 12 hours after addition, FIG. 13
MDCKII/hCLDN-5 = experiment: TEER of CLDN-5 compulsory expression system, MDCKII/hCLDN-5; type: cell-based, human; conditions: MDCKII/hCLDN-5, FIG. 7B

Molecule	portion of hCLDN-5 recognized (hCLDN-5 [1])	recognition of 5-5-1 (5-5-1)	recognition of 1-1-5 (1-1-5)	extracellular loop of CLDN-5 recognized (hCLDN-5 [2])	recognition of linear peptide (western blotting operability) (hCLDN-5 [3])	recognition of 1-5-5 (1-5-5)	localization properties of CLDN-5 in the intercellular space (CLDN-5)	localization properties of ZO-1 (ZO-1)	binding capacity to mCLDN-5 (mCLDN-5)	4 kDa FITC-dextran permeability of the blood-brain barrier simulation system [4]	reduction in TEER (MDCKII/hCLDN-5)
B1	three-dimensional structure created by the transmembrane domain of hCLDN-5; also recorded: domain around the 151st amino acid from the N-terminal present in the second extracellular loop	incapable of recognizing	capable of recognizing	second extracellular loop	weakly recognized						
B2	domain around the 151st amino acid from the N-terminal present in the second extracellular loop	incapable of recognizing	capable of recognizing	second extracellular loop							
B3	domain around the 68th amino acid from the N-terminal present in the first extracellular loop	capable of recognizing	incapable of recognizing	first extracellular loop		incapable of recognizing					
B4	domain around the 151st amino acid from the N-terminal present in the second extracellular loop	incapable of recognizing	capable of recognizing	second extracellular loop							
B5	domain around the 151st amino acid from the N-terminal present in the second extracellular loop	incapable of recognizing	capable of recognizing	second extracellular loop			reduced	did not change	extremely low	exhibited an activity of improving	greatly reducing TEER
B6	domain around the 68th amino acid from the N-terminal present in the first extracellular loop	capable of recognizing	incapable of recognizing	first extracellular loop		capable of recognizing					
